Source: patent CN106699891A (BEIJING MABWORKS BIOTECH CO LTD, dated 2017)

Biological target: T1, PD-L1-Fc (UniProt Q9NZQ7 19-238, limits assumed)
T1 construct: extracellular domain; not shown: Fc fragment of human IgG
Test: SPR (Biacore), antibody captured by anti-human Fab on CM5 chip, PD-L1-Fc as analyte, 1:1 binding fit

T1 sequence (Q9NZQ7 19-238 limits assumed): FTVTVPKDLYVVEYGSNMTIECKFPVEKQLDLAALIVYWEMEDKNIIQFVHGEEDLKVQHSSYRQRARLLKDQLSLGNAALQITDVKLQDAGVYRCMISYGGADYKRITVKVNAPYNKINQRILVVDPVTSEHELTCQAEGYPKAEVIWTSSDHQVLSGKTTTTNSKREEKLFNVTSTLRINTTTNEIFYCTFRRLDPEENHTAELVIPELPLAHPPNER

B1: Mil85-6抗体 (antibody, V domains shown)
VH: EVQLVESGGGLVQPGGSLRLSCAASGFTFADSWIHWVRQAPGKGLEWVAWISPFGGSNYYADSVKGRFTISADTSKNTAYLQMNSLRAEDTAVYYCARRHWPGGFDYWGQGTLVTVSS
VL: DIQMTQSPSSLSASVGDRVTITCRASQSIGTALNWYQQKPGKAPKLLIYTASSLQSGVPSRFSGSGSGTDFTLTISSLQPEDFATYYCQQDNYTPMTFGQGTKVEIK
notes: also called Mil85-6-5C6; 全抗体
Binder B1 has a Kd of 0.429 nM, a koff of 0.000195 s⁻¹ and a kon of 457000 M⁻¹ s⁻¹.
